# Results as given in paper PMC3965211.
# Target: Full-length human His6-Kif15 (human) (UniProt Q9NS87)
# Assay: glycerol gradient ultracentrifugation; 2.5 µM hTpx2 (dimer) + 80 nM hKif15 (tetramer), 5-40% glycerol gradient in 35 mM sodium phosphate buffer
# Sequence of Full-length human His6-Kif15 (human) (Q9NS87 whole entry): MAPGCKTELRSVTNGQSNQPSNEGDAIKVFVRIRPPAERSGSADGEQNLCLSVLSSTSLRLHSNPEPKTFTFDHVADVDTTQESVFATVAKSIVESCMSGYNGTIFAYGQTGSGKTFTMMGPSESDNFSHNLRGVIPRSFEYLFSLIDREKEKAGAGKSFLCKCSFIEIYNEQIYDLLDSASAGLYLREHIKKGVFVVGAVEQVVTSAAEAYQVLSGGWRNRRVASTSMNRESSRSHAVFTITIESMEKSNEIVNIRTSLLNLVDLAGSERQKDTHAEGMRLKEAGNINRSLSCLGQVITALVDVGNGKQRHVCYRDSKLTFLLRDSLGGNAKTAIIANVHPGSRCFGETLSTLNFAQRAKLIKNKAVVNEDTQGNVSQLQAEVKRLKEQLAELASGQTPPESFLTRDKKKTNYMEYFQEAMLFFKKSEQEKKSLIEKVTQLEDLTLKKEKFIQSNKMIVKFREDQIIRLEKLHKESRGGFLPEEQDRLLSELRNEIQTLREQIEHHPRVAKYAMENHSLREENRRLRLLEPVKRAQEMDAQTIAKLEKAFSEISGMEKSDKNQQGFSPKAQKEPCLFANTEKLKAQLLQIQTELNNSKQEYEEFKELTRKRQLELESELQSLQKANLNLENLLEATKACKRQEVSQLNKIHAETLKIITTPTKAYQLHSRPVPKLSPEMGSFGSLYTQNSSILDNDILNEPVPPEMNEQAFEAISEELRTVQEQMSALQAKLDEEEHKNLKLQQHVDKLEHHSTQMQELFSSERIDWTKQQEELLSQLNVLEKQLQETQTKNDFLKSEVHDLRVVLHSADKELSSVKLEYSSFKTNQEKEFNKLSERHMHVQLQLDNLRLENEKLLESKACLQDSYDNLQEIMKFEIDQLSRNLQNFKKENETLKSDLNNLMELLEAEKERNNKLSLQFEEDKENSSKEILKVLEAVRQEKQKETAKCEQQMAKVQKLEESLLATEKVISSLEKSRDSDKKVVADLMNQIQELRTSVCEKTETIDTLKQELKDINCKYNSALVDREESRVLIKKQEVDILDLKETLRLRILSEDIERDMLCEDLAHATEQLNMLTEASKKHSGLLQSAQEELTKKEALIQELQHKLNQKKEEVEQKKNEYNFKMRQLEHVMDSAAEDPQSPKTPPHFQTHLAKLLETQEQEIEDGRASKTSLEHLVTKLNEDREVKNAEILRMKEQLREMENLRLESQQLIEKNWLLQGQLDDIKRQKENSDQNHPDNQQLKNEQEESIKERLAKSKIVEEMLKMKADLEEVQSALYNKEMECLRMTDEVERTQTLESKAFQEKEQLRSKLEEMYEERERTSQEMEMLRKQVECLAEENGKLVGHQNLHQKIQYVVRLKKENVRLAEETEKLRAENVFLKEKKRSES
substance,measurement,value
human His6-Tpx2 (from UniProt Q9ULW0 1-747) (natural protein),fraction of the provided hKif15 in the complex,0.33
